In paper PMC5706988:

Biological target: zonula occludens-1 (ZO-1) (UniProt Q07157)
Test: anti-ZO-1 co-IP, Cx43 blot
Details: reference: wild type; sites S373

## connexin43 (Cx43) (from UniProt P08050) S373A
  binding against the reference: stronger
